# In patent US10961289B2, “Small molecules blocking histone reader domains” (The University of Copenhagen, priority 2015, dated 2021):
# Where no end group is shown, it is not given here.
# Target: T1, TONSL ARD (amino acid 512-692 of TONSL of SEQ ID NO: 16) (Homo sapiens, UniProt Q96HA7)
# T1 construct: GST (N, cleaved yes); made in house; host or cells: E. coli BL21(DE3)-RIL
# T1 sequence (Q96HA7 512-692): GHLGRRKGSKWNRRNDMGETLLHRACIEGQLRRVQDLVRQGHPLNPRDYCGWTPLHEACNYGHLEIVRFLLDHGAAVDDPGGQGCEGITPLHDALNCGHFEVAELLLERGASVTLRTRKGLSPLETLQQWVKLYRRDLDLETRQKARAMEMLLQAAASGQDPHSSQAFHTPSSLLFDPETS
# Assay: Native MS analysis of protein-peptide complexes
# Type: binding
# Conditions: 10 μM TONSL-ARD, 50 mM NH4OAc pH 7.5
# Description: Various peptides were obtained including the peptides described in Examples 11, 12, 13, 14 and 15. If the peptide was in the form of a trifluoroacetate salt (TFA salt), it was desalted on a polymeric weak cation exchange sorbent (Strata X-CW, Phenomenex, Sartrouville, France): Dry peptide (1-3 μmol) were solubilized in 200 μL pure water (Sigma-Aldrich, Lyon, France). The pH of the solution was adjusted to 7-7.5 by addition of 1 mM aqueous ammonium hydroxide solution (solution freshly prepared from 20% concentrated ammonium hydroxide). The exchange column was conditioned with 1 mL methanol (Sigma-Aldrich, Lyon, France) followed by 1 mL water. The solution was injected and the column was washed twice with 500 μL pure water. Finally the peptide was eluted by gravity with 2 times 500 μL of a 20:80:5 acetonitrile/water/formic acid mixture. The elution fraction containing the expected peptide was identified by mass spectrometry. The TFA-free solution was freeze-dried to get a white solid. The solid was dissolved in 300 μL pure water and the solution was freeze-dried for a second time.
# A stock solution of the peptide was prepared by adding 300 μL of pure water to the resulting solid and the concentration of the solution was measured by UV at a wavelength of 205 nm. The extinction coefficient for the corresponding peptide sequence was calculated using the Nick Anthis online protein parameter calculator script (http://nickanthis.com/tools/a205.html). The absence of TFA adducts was confirmed by mass spectrometry with infusion of the protein-peptide mixture at low acceleration voltage (Vc 25 V) in native conditions.
# Purified TONSL ARD (i.e. amino acid 512-692 of TONSL of SEQ ID NO: 16) was buffer exchanged against 500 mM NH4OAc pH 7.5 using a NAP 5 column (NAP™-5, GE Healthcare). Bradford protein quantitation was performed on buffer exchanged protein. […]
# The mass spectrometry (MS) analysis were carried out on an electrospray time-of-flight mass spectrometer (LCT, Waters, Manchester, UK) equipped with an automated chip-based nanoESI device (Triversa Nanomate, Advion Biosciences, Ithaca, N.Y.). […] Mass spectra were recorded using reduced cone voltage (Vc=50 V) and elevated interface pressure (Pi=5 mbar) which correspond to fine-tuned instrumental settings providing sufficient ion desolvation while preserving the integrity of weak non-covalent complexes in the gas phase. […]
# The proportion of 1:1 stoichiometry complex is calculated according to the following equation: […]
# To estimate the binding affinities (Kd) of peptides for TONSL-ARD, a mixture of protein/peptide was analyzed at a constant peptide to protein ratio with decreasing protein concentration until the lowest detection limit was reached. […]
row,Substance,% P1L1 (proportion of 1:1 stoichiometry protein-peptide complex)
1,KGGAKRHRKVLR-NH2 [Example 13],89.9%
2,AKRHRKVLR-NH2 [Example 12],62.6%
3,KGGAARHRKVLR-NH2 [Example 15],81.4%
4,KGGAKRHAKVLR-NH2 [Example 14],73.3%

# Target: T2, TONSL ARD (Homo sapiens, UniProt Q96HA7)
# T2 construct: GST (N); made in house; host or cells: E. coli BL21(DE3)-RIL
# T2 sequence (Q96HA7 512-692): T1 sequence (Q96HA7 512-692)
# Assay: ITC of TONSL ARD binding to histone peptides
# Conditions: ITC (FIG. 13); for H4K20me1/2 also peptide pull-downs
# Description: All the ITC titrations were performed on a Microcal ITC 200 calorimeter at 25° C. […] The exothermic heat of the reaction was measured by 17 sequential 2.2 μl injections of the peptides (1.41 mM in buffer 20 mM Tris pH 7.5 and 0.5 M NaCl) into 200 μl of the TONSL ARD solution (145 μM in the same buffer), spaced at intervals of 150 s. The data were processed with Microcal Origin software and the curves were fit to a single […] binding model.
row,Substance,binding to TONSL ARD
1,H4K20me2: histone H4 (residues 9-25) peptide with di-methylation on Lys20 (GLGKGGAKRHRKVLRDN) [Example H4K20me2],incompatible with TONSL binding
2,H18W: histone H4 (residues 9-25) peptide with His18 mutated to Trp18 (GLGKGGAKRWRKVLRDN) [Example H18W],totally disrupts binding with TONSL ARD
3,"H4 tail (9-25): unmodified histone H4 peptide, residues 9-25 (KGLGKGGAKRHRKVLRD; listed as Homo sapiens)",can bind TONSL ARD
4,H4K20me1: histone H4 (residues 9-25) peptide with mono-methylation on Lys20 (GLGKGGAKRHRKVLRDN) [Example H4K20me1],incompatible with TONSL binding

# Target: T3, TONSL acidic stretch and ARD (450-692) (Homo sapiens, UniProt Q96HA7)
# T3 construct: ITC analysis of TONSL acidic stretch and ARD (aa. 450-692); made in house; host or cells: E. coli BL21(DE3)-RIL
# T3 sequence (Q96HA7 450-692): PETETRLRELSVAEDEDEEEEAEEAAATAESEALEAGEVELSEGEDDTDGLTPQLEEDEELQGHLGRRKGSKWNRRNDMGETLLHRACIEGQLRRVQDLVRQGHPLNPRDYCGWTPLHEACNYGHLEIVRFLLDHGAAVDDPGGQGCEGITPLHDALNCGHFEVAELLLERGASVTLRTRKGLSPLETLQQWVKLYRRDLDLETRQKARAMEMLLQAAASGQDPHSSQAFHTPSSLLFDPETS
# Assay: ITC analysis of TONSL acidic stretch and ARD with histone peptides
# Type: binding
# Conditions: ITC (FIG. 35)
row,Substance,binding to TONSL (450-692)
1,H3K9me1 (1-21): histone H3K9me1 (aa. 1-21) peptide,does not bind
2,"H4 tail (9-25): unmodified histone H4 peptide, residues 9-25 (KGLGKGGAKRHRKVLRD; listed as Homo sapiens)",recognizes
